Biological target: T1, WT hTNF (wild type human TNF-α, N-terminal 6×His tag) (human, UniProt P01375 77-233)
T1 construct: also called His-TNF
Assay: BLI (Octet RED96), His-tagged hTNF on HIS1K biosensor, soluble receptor in solution, global 1:1 fit
Method: KD values were calculated using global fitting with a 1:1 model (R²≥0.95).

T1 sequence (P01375 other isoform, or with tags, fused parts or gaps limits assumed): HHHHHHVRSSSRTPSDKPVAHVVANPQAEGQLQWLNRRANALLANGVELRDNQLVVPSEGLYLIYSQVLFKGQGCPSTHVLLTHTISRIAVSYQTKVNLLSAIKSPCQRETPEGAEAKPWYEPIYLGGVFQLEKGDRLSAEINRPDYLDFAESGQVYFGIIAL

Kd: 10.2 nM
B1: soluble hTNF-R1 (Peprotech) (receptor, human, UniProt P19438 41-201, looked up)
chain: DSVCPQGKYIHPQNNSICCTKCHKGTYLYNDCPGPGQDTDCRECESGSFTASENHLRHCLSCSKCRKEMGQVEISSCTVDRDTVCGCRKNQYRHYWSENLFQCFNCSLCLNGTVHLSCQEKQNTVCTCHAGFFLRENECVSCSNCKKSLECTKLCLPQIEN
notes: Bought soluble receptor used as analyte in the Octet assay; also called p55

Reference: US20190144553A1 (published 2019)
